Data taken from the RNAGym collection of RNA variant scans (doi:10.1101/gr.219683.116).

B1: mRNA-splicing (parent)
chain: AGUUGCUGCUGGGAGCUCCAGCACAGUGAAAUGGACAGAAGGGCAGAGCAA

Variants of: B1
Experiment: exon inclusion enrichment index; higher = more inclusion; WT1 exon 5 minigene, HEK293

Point of comparison: G5C C6G U7C U10C G43C C44U, “exon inclusion enrichment index” value 3.09. Against it:
- G5C C6G U7C U10C G38U — lower, 1.34
- G5C C6G U7C U10C G38C — lower, 2.56
- G5C C6G U7C U10C G38A — lower, 2.05
- G5C C6G U7C U10C G46C — lower, 2.78
- G5C C6G U7C U10C G46A — higher, 3.39
- G5C C6G U7C U10C G46U — lower, 2.51
- G5C C6G U7G G8C U10C — lower, 1.57
- G5C C6G U7C U10C G48A — higher, 4.29
- G5C C6G U7C U10C G48C — higher, 3.91
- G5C C6G U7C U10C G48U — higher, 4.46
- G5C C6G U7C U10C G28A A29G — lower, 2.1
- G5C C6G U7C U10C G28A A29C — lower, 2.29
- G5C C6G U7C U10C G28A A29U — lower, 1.28
- G5C C6G U7G G8U U10C — lower, 1.74
- G5C C6U G8C C9U U10C A14G G15A — lower, 1.17
- G5C C6U G8C C9U U10C A14G G15C — lower, 0.826
- G5C C6U G8C C9U U10C A14G G15U — lower, 0.546
- G5C C6U G8C — lower, 1.8
- G5C C6U G8A C9G U10C — lower, 0.184
- G5C C6G U7C U10C G26C U27C — higher, 4.24
- G5C C6G U7C U10C G26C U27A — higher, 3.33
- G5C C6G U7C U10C G26C U27G — higher, 4.43
- G5C C6U G8C C9U U10C A20G G21U — lower, 2.01
- G5C C6U G8C C9U U10C A20G G21A — lower, 2.38
- G5C C6U G8C C9U U10C A20G G21C — lower, 1.71
- G5C C6G U7C U10C G15C C16U — higher, 3.37
- G5C C6G U7C U10C G15C C16A — higher, 3.23
- G5C C6G U7C U10C G15C C16G — higher, 3.66
- G5C C6G U7C U10C G26U U27A — lower, 2.22
- G5C C6G U7C U10C G26U U27C — higher, 4.3
- G5C C6G U7C U10C G26U U27G — higher, 3.98
- G5C C6G U7C U10C G42A G43C — higher, 5.39
- G5C C6G U7C U10C G42A G43U — higher, 5.36
- G5C C6G U7C U10C G42A G43A — higher, 4.65
- G5C C6G U7C U10C U27G G28A — higher, 3.58
- G5C C6G U7C U10C U27G G28U — lower, 0.0303
- G5C C6G U7C U10C U27G G28C — lower, 2.55
- G5C C6G U7C U10C G33A — lower, 0.609
- G5C C6G U7C U10C G33U — lower, 1.79
- G5C C6G U7C U10C G33C — higher, 3.55
- G5C C6G U7C U10C U17G C18U — higher, 3.11
- G5C C6G U7C U10C U17G C18A — higher, 3.39
- G5C C6G U7C U10C U17G C18G — lower, 2.48
- G5C C6G U7C U10G — lower, 1.86
- G5C C6U G8C C9U U10C A39G A40C — lower, 1.79
- G5C C6G U7C U10C U27G — lower, 2.02
- G5C C6G U7C U10C U27A — higher, 3.66
- G5C C6G U7C U10C U27C — higher, 4.97
- G5C C6U G8C C9U U10C A29G A30G — lower, 1.37
- G5C C6U G8C C9U U10C A29G A30C — lower, 0.838
- G5C C6U G8C C9U U10C A29G A30U — lower, 0.538
- G5C C6U G8C C9U U10A — lower, 0.186
- G5C C6U G8C C9U U10C — lower, 2.2
- G5C C6U G8C C9U U10C A14U G15C — lower, 0.66
- G5C C6U G8C C9U U10C A14U G15A — lower, 0.472
- G5C C6U G8C C9U U10C A14U G15U — lower, 0.556
- G5C C6G U7C U10C G33C G34C — lower, 2.29
- G5C C6G U7C U10C G33C G34A — lower, 2.48
- G5C C6G U7C U10C G33C G34U — lower, 2.86
- G5C C6U G8C C9U U10C A37G G38C — lower, 2.08
- G5C C6U G8C C9U U10C A37G G38U — lower, 0.627
- G5C C6U G8C C9U U10C A37G G38A — lower, 1.79
- G5C C6U C9A U10C — lower, 1.69
- G5C C6G U7C U10C G34U A35G — lower, 1.24
- G5C C6G U7C U10C G34U A35C — lower, 1.66
- G5C C6G U7C U10C G34U A35U — lower, 1.2
- G5C C6G U7G U10C — lower, 1.51
- G5C C6G U7C U10C G42C G43U — higher, 3.91
- G5C C6G U7C U10C G42C G43C — higher, 3.63
- G5C C6G U7C U10C G42C G43A — higher, 4
- G5C C6G U7G C9A — lower, 1.02
- G5C C6U G8C C9U U10C A35G C36G — lower, 0.14
- G5C C6U G8C C9U U10C A35G C36A — lower, 1.07
- G5C C6U G8C C9U U10C A35G C36U — lower, 0.016
- G5C C6G U7C U10C G46U A47C — higher, 3.73
- G5C C6G U7C U10C G46U A47G — lower, 2.91
- G5C C6G U7C U10C G46U A47U — higher, 3.93
- G5C C6G U7C U10C G13U A14U — lower, 1.35
- G5C C6G U7C U10C G13U A14C — lower, 1.67
- G5C C6G U7C U10C G13U A14G — lower, 1.28
- G5C C6U G8C C9U U10C A23U C24G — lower, 2.38
- G5C C6U G8C C9U U10C A23U C24A — lower, 0.79
- G5C C6U G8C C9U U10C A23U C24U — lower, 0.198
- G5C C6U G8C C9U U10C A29C A30U — lower, 1.18
- G5C C6U G8C C9U U10C A29C A30C — lower, 2.52
- G5C C6U G8C C9U U10C A29C A30G — higher, 3.25
- G5C C6U G8C C9U U10C A25C G26A — higher, 3.25
- G5C C6U G8C C9U U10C A25C G26C — lower, 2.25
- G5C C6U G8C C9U U10C A25C G26U — lower, 2.7
- G5C C6G U7C U10C U32C — higher, 4.75
- G5C C6G U7C U10C U32A — higher, 3.12
- G5C C6G U7C U10C U32G — lower, 0.601
- G5C C6U C9U U10C — lower, 1.13
- G5C C6G U7C U10C G43U — lower, 2.89
- G5C C6G U7C U10C G43C — lower, 2.7
- G5C C6G U7C U10C G43A — higher, 5.08
- G5C C6G U7C U10C U32A G33A — lower, 2
- G5C C6G U7C U10C U32A G33C — higher, 3.67
- G5C C6G U7C U10C U32A G33U — lower, 2.76
- G5C C6U G8C C9U U10C A30U — lower, 1.34
- G5C C6U G8C C9U U10C A30G — lower, 2.12
- G5C C6U G8C C9U U10C A30C — lower, 2.23
- G5C C6G U7C U10C G15U C16G — higher, 4.02
- G5C C6G U7C U10C G15U C16U — higher, 3.3
- G5C C6G U7C U10C G15U C16A — higher, 3.58
- G5C C6U G8C C9U U10C A30G A31U — lower, 0.63
- G5C C6U G8C C9U U10C A30G A31G — lower, 0.469
- G5C C6U G8C C9U U10C A30G A31C — lower, 0.276
- G5C C6G U7C U10C G34A — lower, 2.69
- G5C C6G U7C U10C G34U — lower, 1.32
- G5C C6G U7C U10C G34C — lower, 1.79
- G5C C6U G8C C9U U10C A25G G26C — higher, 3.56
- G5C C6U G8C C9U U10C A25G G26A — higher, 4.14
- G5C C6U G8C C9U U10C A25G G26U — lower, 2.71
- G5C C6G U7C U10C G42U G43A — higher, 4.08
- G5C C6G U7C U10C G42U G43U — higher, 4.33
- G5C C6G U7C U10C G42U G43C — lower, 2.28
- G5C C6G U7C U10C U27C G28A — higher, 3.28
- G5C C6G U7C U10C U27C G28C — higher, 4.03
- G5C C6G U7C U10C U27C G28U — lower, 2.8
- G5C C6G U7C U10C G34C A35C — lower, 0.321
- G5C C6G U7C U10C G34C A35G — lower, 2.84
- G5C C6G U7C U10C G34C A35U — lower, 1.1
- G5C C6U G8C C9G U10A — higher, 3.12
- G5C C6U G8C C9G U10C — higher, 3.48
- G5C C6U G8C C9G U10G — higher, 3.42
- G5C C6U G8C C9U G11A — lower, 0.125
- G5C C6U G8C C9U G11U — lower, 0.905
- G5C C6U G8C C9U G11C — lower, 2.09
- G5C C6G U7C U10C G15A C16U — higher, 3.21
- G5C C6G U7C U10C G15A C16G — lower, 3.04
- G5C C6G U7C U10C G15A C16A — higher, 3.14
- G5C C6U G8C C9U U10C A20C G21A — lower, 0.599
- G5C C6U G8C C9U U10C A20C G21U — lower, 0.926
- G5C C6U G8C C9U U10C A20C G21C — lower, 0.524
- G5C C6U G8C C9U U10C A31C U32A — lower, 1.46
- G5C C6U G8C C9U U10C A31C U32C — higher, 3.49
- G5C C6U G8C C9U U10C A31C U32G — lower, 2.49
- G5C C6U G8C C9U — lower, 1.16
- G5C C6U G8C C9A — lower, 1.7
- G5C C6U G8C C9G — higher, 3.5
- G5C C6G U7G G8C C9U U10C — lower, 2.15
- G5C C6G U7C U10C G13A A14G — higher, 3.3
- G5C C6G U7C U10C G13A A14U — lower, 2.93
- G5C C6U G8C C9U U10C A20U G21C — lower, 1.62
- G5C C6U G8C C9U U10C A20U G21A — lower, 0.91
- G5C C6U G8C C9U U10C A20U G21U — lower, 1.12
- G5C C6U G8A C9U U10C — lower, 0.941
- G5C C6G U7C U10C G43C C44G — higher, 6.55
- G5C C6G U7C U10C G43C C44A — higher, 3.83
- G5C C6U G8C C9U U10C A35U — lower, 0.452
- G5C C6U G8C C9U U10C A35C — lower, 0.541
- G5C C6U G8C C9U U10C A35G — lower, 0.766
- G5C C6G U7G G8A U10C — lower, 2.87
- G5C C6G U7G G8A U10A — lower, 0.218
- G5C C6U G8C C9U U10C A30C A31U — lower, 2.1
- G5C C6U G8C C9U U10C A30C A31G — lower, 3.01
- G5C C6U G8C C9U U10C A30C A31C — lower, 2.9
- G5C C6G U7C U10C G13C A14U — lower, 1.88
- G5C C6G U7C U10C G13C A14G — lower, 1.61
- G5C C6G U7C U10C G13C A14C — lower, 1.79
- G5C C6U G8C C9U U10C A30U A31C — lower, 1.95
- G5C C6U G8C C9U U10C A30U A31G — lower, 2.12
- G5C C6U G8C C9U U10C A30U A31U — lower, 1.52
- G5C C6G U7C U10C U17C C18U — higher, 3.54
- G5C C6G U7C U10C U17C C18A — higher, 3.59
